Kd data for one molecule are collected here from article PMC5650360, “Maslinic acid promotes autophagy by disrupting the interaction between Bcl2 and Beclin1 in rat pheochromocytoma PC12 cells” (Oncotarget, 2017).

This assay deals with T1, rat Beclin1 BH3 domain and Coiled Coil domain (residues 100-266) (rat, UniProt Q91XJ1 100-266).
T1 construct: Beclin1, rat, BH3 domain and coiled coil domain, residues 100-266; Cloned in a modified pET32 vector with a human rhinovirus 3C protease site and without thioredoxin; source: E. coli BL21 (DE3), purified (HisTrap HP, 3C cleavage, Superdex 75)
T1 sequence (Q91XJ1 100-266): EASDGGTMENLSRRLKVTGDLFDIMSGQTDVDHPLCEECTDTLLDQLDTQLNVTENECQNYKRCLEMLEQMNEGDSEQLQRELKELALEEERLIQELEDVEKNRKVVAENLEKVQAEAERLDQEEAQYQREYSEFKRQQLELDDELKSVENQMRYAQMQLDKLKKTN
As to the kind of experiment: ITC; 200 μM Beclin1 injected (2 μl aliquots) into 200 μl of 20 μM Bcl2, 50 mM Tris pH 8.0, 150 mM NaCl, Auto-iTC200, without MA. The settings on record: both partners purified. In general terms: Isothermal titration calorimetry measures the heat released or taken up as one component is titrated into another.

B1: BH3 motif containing region of rat Bcl2 (residues 1-156), un-tagged version (domain or fragment, UniProt P49950 1-156, looked up)
chain: MAQAGRTGYDNREIVMKYIHYKLSQRGYEWDTGDEDSAPLRAAPTPGIFSFQPESNRTPAVHRDTAARTSPLRPLVANAGPALSPVPPVVHLTLRRAGDDFSRRYRRDFAEMSSQLHLTPFTARGRFATVVEELFRDGVNWGRIVAFFEFGGVMCV
notes: Bcl2, rat, BH3 motif containing region, residues 1-156; Cloned as a GST fusion in a modified pET32 vector with a 3C protease site
The molecule B1 returned a Kd of roughly 7.3 µM.

As a reminder, the Kd is the concentration at which binding is half-saturated. Read a low Kd as tighter binding.
